Experimental data from patent publication US20210363232A1 (Eli Lilly, published 2021).
Numbering of substitutions follows the chain as printed.

T1: Cyno IL-34 (cyno (cynomolgus monkey), UniProt G7Q1L3 21-242)
T1 sequence: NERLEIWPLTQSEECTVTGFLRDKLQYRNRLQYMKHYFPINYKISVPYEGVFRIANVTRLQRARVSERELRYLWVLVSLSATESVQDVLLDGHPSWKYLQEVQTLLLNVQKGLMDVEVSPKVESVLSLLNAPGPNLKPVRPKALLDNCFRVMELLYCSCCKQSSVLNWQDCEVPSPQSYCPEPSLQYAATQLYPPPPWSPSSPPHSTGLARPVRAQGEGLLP

T2: Mouse IL-34 (mouse, UniProt Q8R1R4 21-235)
T2 construct: NCBI NP_001128572.1 is printed; also called Murine IL-34
T2 sequence: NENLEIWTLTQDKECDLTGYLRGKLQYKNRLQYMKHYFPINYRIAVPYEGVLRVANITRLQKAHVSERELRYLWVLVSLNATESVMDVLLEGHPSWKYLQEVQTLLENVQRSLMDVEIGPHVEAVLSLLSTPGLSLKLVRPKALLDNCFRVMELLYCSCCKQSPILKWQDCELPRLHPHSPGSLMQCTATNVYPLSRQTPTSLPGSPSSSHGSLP

B1: mature Human IL-34 (ligand)
chain: NEPLEMWPLTQNEECTVTGFLRDKLQYRSRLQYMKHYFPINYKISVPYEGVFRIANVTRLQRAQVSERELRYLWVLVSLSATESVQDVLLEGHPSWKYLQEVETLLLNVQQGLTDVEVSPKVESVLSLLNAPGPNLKLVRPKALLDNCFRVMELLYCSCCKQSSVLNWQDCEVPSPQSCSPEPSLQYAATQLYPPPPWSPSSPPHSTGSVRPVRAQGEGLLP
notes: if the entry is the precursor, residues 21-242 apply; NCBI NP_689669.2 is printed; also called hIL-34; h IL-34
B2: Antibody 1 (antibody, human IgG4 S228P, kappa, F234A L235A, V domains shown)
VH: EVQLLESGGGLVQPGGSLRLSCAASGFTFSSYATSWVRQAPGKGLEWVSAISHSGRSTYYADSVKGRFTISRDNSKNTLYLQMNSLRAEDTAVYYCARGRSSLDTWGQGTLVTVSS
VL: EIVLTQSPGTLSLSPGERATLSCRASQSISSAYLAWYQQKPGQAPRLLIYASSIRPTGIPDRFSGSGSGTDFTLTISPLEPEDFAVYYCSQYGDSLSFGGGTKVEIKR
notes: Human anti-human IL-34 antibody with a modified IgG4 (IgG4PAA) heavy chain and kappa light chain; also called Exemplified Antibody 1
B3: Antibody 3 (antibody, mouse IgG1, kappa, V domains shown)
VH: B2 VH with S31Y, T34M, S54R, R56G, Y59L, T105G, L111M
VL: B2 VL with T10I, T20S, Q27T, I29V, I54H, T57L, P78R, S90Q
notes: Antibody optimised against mouse IL-34; The printed constant regions look murine, and a mIgG1 control is used in vivo; also called Exemplified Antibody 3
B4: Antibody 2 (antibody, human IgG4 S228P, kappa, F234A L235A, V domains shown)
VH: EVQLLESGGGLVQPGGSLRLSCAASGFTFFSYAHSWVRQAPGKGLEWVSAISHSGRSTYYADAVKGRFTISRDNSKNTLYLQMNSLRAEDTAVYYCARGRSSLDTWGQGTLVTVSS
VL: B2 VL
notes: Shares its light chain with Antibody 1; Modified IgG4 heavy chain; also called Exemplified Antibody 2

Tests used:
[1] = biological target: T3, Human CSF1R Fc fusion protein (Exemplified compound D) (human, UniProt P07333 20-512, limits assumed); assay: MSD solution equilibrium titration at 37 C; fixed Fc fusion, IL-34 titrated, free protein captured on IL-34-coated plate; mean ± STDEV, n = 5
T3 construct: Made in house and purified by MabSelect SuRe and size exclusion; also called hCSF1R-Fc; Exemplified compound D (hCSF1R-Fc); not shown: Fc part
T3 sequence (P07333 20-512 limits assumed): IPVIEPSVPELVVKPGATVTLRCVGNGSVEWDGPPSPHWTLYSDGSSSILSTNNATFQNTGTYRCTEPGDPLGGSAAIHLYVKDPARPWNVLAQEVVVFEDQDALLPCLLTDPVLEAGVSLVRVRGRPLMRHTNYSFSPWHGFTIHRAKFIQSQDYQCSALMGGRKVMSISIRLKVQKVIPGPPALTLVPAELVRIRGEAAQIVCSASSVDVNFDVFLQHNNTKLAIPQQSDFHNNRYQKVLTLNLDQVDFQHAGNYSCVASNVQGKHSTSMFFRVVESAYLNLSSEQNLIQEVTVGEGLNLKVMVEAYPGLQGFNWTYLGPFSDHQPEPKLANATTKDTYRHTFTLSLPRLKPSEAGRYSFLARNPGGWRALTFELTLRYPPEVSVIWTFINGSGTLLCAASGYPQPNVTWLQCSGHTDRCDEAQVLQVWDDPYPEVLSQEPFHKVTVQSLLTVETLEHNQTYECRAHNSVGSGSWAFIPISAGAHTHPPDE

Cyno IL-34 [2] = biological target: T1, Cyno IL-34; assay: cell-based or functional assay
mature Human IL-34 [3] = biological target: B1; assay: cell-based or functional assay
mature Human IL-34 [4] = biological target: B1; assay: cell-based or functional assay; remark: listed apart in the source
Cyno IL-34 [5] = biological target: T1, Cyno IL-34; assay: MSD solution equilibrium titration at 37 C; fixed antibody, cyno IL-34 titrated; mean ± STDEV, n = 5
Procedure: (§1) Briefly, usually a 2-fold or 3-fold dilution series of human, cyno or mouse IL-34 is prepared from a starting concentration of 40, or 50 or 60 or 80 or 100 or 120 nM to 100 fM; and each series includes an IL-34 blank control. Samples are prepared in 3% (w/v) Blocker A solution (MSD®, #R93AA-1) and a fixed final concentration of 5-50 pM of each exemplified antibody in Table 1 is added to each sample. An antibody only control is included. A volume of 50 μl of each protein-antibody sample is added to individual wells of a 96-well microtiter plate (Greiner, EK-20101). The plate is sealed with optical adhesive film (Thermo Fisher Scientific, #4311971) and incubated at 37° C. for 1-3 days to allow for sample equilibrium. On the day before analysis, each row of a 96-well MSD® Standard plate (MSD®, #L15XA) is coated with 30 μl of the corresponding IL-34 (as used in the titration series) at a concentration of 1 μg/ml in phosphate buffered saline (PBS). […] The plate is washed three more times with PBST followed by the addition of 150 μl/well of 1× Read buffer (MSD®, #R92TC-2). The MSD® Standard plate is read using a MESO Quickplex SQ 120/1300 instrument (Meso Scale Discovery).

mature Human IL-34 [6] = biological target: B1; assay: MSD solution equilibrium titration at 37 C; fixed antibody, IL-34 titrated, free antibody captured on IL-34-coated plate; mean ± STDEV, n = 5
Procedure: as §1

[7] = biological target: IL-34 (species not stated); assay: cell-based or functional assay
Mouse IL-34 = biological target: T2, Mouse IL-34; assay: MSD solution equilibrium titration at 37 C; fixed antibody, mouse IL-34 titrated
Procedure: as §1

Binder: B1
Kd [1]: 0.056 nM

Binder: B2
IC50; neutralization of cyno IL-34 induced luciferase reporter activity, hCSF1R 293 SRE cells (Cyno IL-34 [2]): 0.654 nM
IC50; neutralization of human IL-34 induced luciferase reporter activity, hCSF1R 293 SRE cells (mature Human IL-34 [3]): 0.385 nM
IC50; inhibition of human IL-34 induced CSF1R dimerization, PathHunter eXpress assay (mature Human IL-34 [4]): 0.226 nM
Kd (Cyno IL-34 [5]): 0.108 nM
Kd (mature Human IL-34 [6]): 0.059 nM

Binder: B3
IC50; inhibition of IL-34 induced ERK phosphorylation in NIH-3T3/CSF1R cells [7]: 15.7 nM
Kd (Mouse IL-34): 0.016 nM

Binder: B4
Kd (Cyno IL-34 [5]): 0.152 nM
Kd (mature Human IL-34 [6]): 0.054 nM
